According to publication PMC2045677, “Thyroid hormone receptor orthologues from invertebrate species with emphasis on Schistosoma mansoni”:

T1: SmTRα (Schistosoma mansoni, UniProt Q2TUU7 1-1115)
T1 sequence: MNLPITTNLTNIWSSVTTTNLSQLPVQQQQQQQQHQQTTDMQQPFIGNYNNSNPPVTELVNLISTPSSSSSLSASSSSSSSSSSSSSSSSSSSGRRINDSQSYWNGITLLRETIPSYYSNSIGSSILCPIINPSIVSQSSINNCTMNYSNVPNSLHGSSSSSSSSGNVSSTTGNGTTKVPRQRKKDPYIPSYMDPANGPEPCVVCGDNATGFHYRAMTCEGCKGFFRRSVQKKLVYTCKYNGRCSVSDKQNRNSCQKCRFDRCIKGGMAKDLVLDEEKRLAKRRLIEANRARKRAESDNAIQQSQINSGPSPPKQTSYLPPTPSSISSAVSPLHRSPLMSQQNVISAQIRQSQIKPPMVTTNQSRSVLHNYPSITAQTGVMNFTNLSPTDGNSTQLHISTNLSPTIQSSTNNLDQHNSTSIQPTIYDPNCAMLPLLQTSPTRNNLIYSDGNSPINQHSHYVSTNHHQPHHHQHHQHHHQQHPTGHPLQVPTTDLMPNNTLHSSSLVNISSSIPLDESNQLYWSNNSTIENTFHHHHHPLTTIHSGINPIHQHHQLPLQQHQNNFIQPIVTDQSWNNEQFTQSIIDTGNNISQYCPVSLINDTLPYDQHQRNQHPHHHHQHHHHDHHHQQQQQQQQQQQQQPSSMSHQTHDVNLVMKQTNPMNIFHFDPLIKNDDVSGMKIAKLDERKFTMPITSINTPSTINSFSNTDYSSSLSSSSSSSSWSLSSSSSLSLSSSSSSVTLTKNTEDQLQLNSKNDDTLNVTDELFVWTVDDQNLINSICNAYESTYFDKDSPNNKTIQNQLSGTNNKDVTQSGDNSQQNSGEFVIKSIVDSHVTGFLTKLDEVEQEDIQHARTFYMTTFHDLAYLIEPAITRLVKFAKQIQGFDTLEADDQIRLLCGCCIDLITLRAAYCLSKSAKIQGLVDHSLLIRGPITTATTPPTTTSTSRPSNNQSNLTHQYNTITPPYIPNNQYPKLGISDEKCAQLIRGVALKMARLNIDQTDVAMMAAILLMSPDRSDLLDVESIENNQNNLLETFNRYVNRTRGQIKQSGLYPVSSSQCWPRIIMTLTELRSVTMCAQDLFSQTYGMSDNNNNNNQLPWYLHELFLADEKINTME

B1: half-site (dsDNA)
DNA 1: GTACCGTAAGGTCACTCGCGT
DNA 2: ACGCGAGTGACCTTACGGTAC
B2: DR3 (dsDNA)
DNA 1: CCGTAAGGTCACAGAGGTCACTCG
DNA 2: CGAGTGACCTCTGTGACCTTACGG
B3: DR2 (dsDNA)
DNA 1: CCGTAAGGTCACAAGGTCACTCG
DNA 2: CGAGTGACCTTGTGACCTTACGG
B4: DR1 (dsDNA)
DNA 1: CCGTAAGGTCACAGGTCACTCG
DNA 2: CGAGTGACCTGTGACCTTACGG
B5: Pal0 (dsDNA)
DNA 1: CGCAAGGTCATGACCTCG
DNA 2: CGAGGTCATGACCTTGCG
B6: DR5 (dsDNA)
DNA 1: CCGTAAGGTCACCAGGAGGTCACTCG
DNA 2: CGAGTGACCTCCTGGTGACCTTACGG
B7: DR4 (dsDNA)
DNA 1: CCGTAAGGTCACAGGAGGTCACTCG
DNA 2: CGAGTGACCTCCTGTGACCTTACGG
B8: DR0 (dsDNA)
DNA 1: CCGTAAGGTCAAGGTCACTCG
DNA 2: CGAGTGACCTTGACCTTACGG

What follows are binders tested against T1, SmTRα (assay: EMSA; monomer or homodimer; EMSA on ice 40 min, 15 µl with 3 µl 5x buffer (5x: 20% glycerol, 5 mM MgCl2, 2.5 mM EDTA, 2.5 mM DTT, 250 mM NaCl, 50 mM Tris-HCl pH 7.5, 0.25 mg/ml poly(dI-dC)); 6% native gel, 1x TBE, 4°C). Details: protein: ivt; tags: none stated (pCITE-4a); label: 32P; blunt.
B1: binds. B2: binds. B3: binds. B4: binds. B5: binds. B6: binds. B7: binds. B8: binds.

These binders were tested against SmTRα(Gln182-Ala288) (Schistosoma mansoni, UniProt Q2TUU7 182-288) (assay: EMSA; monomer or homodimer; cold self competes; EMSA on ice 40 min, 15 µl with 3 µl 5x buffer (5x: 20% glycerol, 5 mM MgCl2, 2.5 mM EDTA, 2.5 mM DTT, 250 mM NaCl, 50 mM Tris-HCl pH 7.5, 0.25 mg/ml poly(dI-dC)); 6% native gel, 1x TBE, 4°C). Details: protein: ivt; tags: none stated (pCITE-4a); label: 32P; blunt.
B1: binds. B2: binds. B3: binds. B4: binds. B5: binds. B6: binds. B7: binds. B8: binds.
